In article PMC6351000:

Target: HIV-1 envelope glycoprotein (Env) of the Tier 1B subtype B strain BaL.01, cell surface-expressed (HIV-1 (subtype B, strain BaL.01))

**Q.** “recombinant two-domain sCD4 (sCD4-183_avi_his.bio) (domain or fragment)” was tested. Which sCD4 concentration at the peak of the basal epitope exposure curve of V3 crown mAb 1-79 (antibody staining of Env-expressing cells, flow cytometry, increasing sCD4) did it give?
**A.** Its sCD4 concentration at the peak of the basal epitope exposure curve of V3 crown mAb 1-79 (antibody staining of Env-expressing cells, flow cytometry, increasing sCD4) is 5 µM.
